Test results reported in patent US20210130804.

Columns and labels:
Assay in all cases: cleavage_in_vitro
[1] = test system: T1, OMNI-53 TXTL (Clostridium sp. AF02-29); settings: PAM NRHR general, NAWA specific
T1 sequence: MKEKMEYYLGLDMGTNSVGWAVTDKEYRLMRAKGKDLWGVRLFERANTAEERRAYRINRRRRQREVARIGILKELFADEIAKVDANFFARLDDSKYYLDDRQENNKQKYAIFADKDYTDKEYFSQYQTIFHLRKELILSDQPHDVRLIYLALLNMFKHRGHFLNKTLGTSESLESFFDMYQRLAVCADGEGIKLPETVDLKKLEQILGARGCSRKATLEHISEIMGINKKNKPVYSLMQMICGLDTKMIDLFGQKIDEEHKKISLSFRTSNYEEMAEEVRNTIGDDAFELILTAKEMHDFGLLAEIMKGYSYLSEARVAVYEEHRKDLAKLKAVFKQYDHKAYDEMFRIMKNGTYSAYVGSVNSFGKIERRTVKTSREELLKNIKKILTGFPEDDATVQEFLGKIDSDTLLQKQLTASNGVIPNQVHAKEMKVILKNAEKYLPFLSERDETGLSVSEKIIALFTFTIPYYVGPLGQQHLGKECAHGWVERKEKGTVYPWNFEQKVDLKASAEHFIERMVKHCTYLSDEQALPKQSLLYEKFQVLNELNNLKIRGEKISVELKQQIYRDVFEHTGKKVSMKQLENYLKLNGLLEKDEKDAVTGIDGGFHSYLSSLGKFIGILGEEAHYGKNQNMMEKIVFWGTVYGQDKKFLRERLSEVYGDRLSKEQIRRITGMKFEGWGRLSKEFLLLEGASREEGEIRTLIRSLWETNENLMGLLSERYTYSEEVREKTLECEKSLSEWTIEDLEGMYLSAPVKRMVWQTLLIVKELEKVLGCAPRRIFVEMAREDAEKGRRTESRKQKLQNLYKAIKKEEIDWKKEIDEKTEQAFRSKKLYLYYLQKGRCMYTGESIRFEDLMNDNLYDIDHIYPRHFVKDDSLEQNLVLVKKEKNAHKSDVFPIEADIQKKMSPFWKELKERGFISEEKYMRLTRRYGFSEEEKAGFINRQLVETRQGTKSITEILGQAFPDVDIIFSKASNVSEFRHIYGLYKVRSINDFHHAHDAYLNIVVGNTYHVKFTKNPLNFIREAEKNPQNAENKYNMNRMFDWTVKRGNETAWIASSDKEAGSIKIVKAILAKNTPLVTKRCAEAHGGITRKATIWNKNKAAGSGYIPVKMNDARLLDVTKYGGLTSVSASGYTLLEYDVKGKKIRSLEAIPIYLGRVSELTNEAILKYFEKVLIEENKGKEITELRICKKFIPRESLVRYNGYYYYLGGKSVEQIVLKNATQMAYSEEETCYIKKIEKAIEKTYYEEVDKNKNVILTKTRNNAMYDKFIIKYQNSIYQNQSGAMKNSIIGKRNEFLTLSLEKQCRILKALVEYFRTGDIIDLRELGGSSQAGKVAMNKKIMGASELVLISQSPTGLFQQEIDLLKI

[2] = test system: T2, OMNI-50 TXTL (Ezakiella peruensis strain M6.X2); settings: PAM NGG
T2 sequence: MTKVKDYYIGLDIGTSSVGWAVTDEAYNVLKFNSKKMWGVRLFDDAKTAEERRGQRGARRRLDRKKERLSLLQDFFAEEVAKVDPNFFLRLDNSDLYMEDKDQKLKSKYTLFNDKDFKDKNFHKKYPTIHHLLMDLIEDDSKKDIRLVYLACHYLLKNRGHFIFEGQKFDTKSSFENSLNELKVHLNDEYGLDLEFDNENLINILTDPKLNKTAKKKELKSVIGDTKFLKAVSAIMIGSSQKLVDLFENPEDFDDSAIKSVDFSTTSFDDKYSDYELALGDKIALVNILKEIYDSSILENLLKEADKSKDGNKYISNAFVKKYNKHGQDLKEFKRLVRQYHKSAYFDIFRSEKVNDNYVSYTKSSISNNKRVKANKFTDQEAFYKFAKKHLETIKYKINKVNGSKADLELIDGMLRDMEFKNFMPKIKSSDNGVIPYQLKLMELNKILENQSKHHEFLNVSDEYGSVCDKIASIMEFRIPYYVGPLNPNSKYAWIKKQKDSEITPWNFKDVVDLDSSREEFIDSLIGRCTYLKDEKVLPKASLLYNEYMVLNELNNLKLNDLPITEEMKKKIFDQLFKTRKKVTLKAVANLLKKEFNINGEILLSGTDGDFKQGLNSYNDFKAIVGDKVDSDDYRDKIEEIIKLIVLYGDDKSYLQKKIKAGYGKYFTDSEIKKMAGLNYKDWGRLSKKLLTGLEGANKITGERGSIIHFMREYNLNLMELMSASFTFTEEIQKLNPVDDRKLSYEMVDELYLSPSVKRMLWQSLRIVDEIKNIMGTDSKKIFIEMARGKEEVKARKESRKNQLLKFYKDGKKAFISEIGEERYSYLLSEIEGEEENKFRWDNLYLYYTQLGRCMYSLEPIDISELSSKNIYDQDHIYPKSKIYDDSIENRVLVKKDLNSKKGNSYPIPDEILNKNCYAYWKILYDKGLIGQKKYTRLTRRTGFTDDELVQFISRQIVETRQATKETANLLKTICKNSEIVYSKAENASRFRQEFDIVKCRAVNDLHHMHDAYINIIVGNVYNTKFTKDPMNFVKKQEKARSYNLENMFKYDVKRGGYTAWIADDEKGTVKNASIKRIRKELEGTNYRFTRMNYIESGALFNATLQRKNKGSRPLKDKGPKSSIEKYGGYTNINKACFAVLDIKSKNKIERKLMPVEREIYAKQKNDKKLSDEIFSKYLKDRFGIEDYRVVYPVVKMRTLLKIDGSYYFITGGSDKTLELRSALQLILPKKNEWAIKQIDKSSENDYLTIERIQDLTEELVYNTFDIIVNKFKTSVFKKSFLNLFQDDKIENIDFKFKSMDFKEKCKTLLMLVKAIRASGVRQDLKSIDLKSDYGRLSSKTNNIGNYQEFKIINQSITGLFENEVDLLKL

[3] = test system: T3, OMNI-39 TXTL (Butyrivibrio sp. AC2005); settings: PAM NNGHAD general, NNGYAA specific
T3 sequence: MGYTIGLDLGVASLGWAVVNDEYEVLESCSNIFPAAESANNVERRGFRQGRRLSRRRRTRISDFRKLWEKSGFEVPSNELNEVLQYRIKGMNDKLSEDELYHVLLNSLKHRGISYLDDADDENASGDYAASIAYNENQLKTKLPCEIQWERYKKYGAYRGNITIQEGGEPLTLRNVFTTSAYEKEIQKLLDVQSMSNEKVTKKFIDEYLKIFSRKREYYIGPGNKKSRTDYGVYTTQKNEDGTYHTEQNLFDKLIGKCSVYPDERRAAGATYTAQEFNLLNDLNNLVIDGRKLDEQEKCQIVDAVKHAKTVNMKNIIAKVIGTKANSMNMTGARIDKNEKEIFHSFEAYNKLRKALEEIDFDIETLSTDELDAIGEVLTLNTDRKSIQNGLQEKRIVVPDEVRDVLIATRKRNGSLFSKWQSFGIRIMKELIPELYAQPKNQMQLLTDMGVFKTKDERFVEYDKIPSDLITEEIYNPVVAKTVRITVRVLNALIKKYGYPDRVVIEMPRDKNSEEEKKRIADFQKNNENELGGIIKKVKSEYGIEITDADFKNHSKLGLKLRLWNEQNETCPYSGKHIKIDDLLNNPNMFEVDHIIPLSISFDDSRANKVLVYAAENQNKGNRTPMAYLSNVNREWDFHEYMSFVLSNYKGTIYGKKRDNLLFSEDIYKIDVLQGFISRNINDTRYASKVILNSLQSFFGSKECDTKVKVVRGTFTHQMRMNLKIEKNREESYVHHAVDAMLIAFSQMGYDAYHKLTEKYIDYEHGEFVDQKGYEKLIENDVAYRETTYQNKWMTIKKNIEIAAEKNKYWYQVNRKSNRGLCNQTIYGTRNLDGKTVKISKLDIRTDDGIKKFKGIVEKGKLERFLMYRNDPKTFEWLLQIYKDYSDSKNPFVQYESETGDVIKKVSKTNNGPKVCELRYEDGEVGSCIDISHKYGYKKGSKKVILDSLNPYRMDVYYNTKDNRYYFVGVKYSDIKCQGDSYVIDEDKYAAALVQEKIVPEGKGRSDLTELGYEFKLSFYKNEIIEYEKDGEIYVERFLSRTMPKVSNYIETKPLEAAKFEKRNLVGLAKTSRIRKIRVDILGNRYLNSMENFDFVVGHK

[4] = test system: T4, OMNI-40 TXTL (Aliiarcobacter faecis); settings: PAM NYGRV
T4 sequence: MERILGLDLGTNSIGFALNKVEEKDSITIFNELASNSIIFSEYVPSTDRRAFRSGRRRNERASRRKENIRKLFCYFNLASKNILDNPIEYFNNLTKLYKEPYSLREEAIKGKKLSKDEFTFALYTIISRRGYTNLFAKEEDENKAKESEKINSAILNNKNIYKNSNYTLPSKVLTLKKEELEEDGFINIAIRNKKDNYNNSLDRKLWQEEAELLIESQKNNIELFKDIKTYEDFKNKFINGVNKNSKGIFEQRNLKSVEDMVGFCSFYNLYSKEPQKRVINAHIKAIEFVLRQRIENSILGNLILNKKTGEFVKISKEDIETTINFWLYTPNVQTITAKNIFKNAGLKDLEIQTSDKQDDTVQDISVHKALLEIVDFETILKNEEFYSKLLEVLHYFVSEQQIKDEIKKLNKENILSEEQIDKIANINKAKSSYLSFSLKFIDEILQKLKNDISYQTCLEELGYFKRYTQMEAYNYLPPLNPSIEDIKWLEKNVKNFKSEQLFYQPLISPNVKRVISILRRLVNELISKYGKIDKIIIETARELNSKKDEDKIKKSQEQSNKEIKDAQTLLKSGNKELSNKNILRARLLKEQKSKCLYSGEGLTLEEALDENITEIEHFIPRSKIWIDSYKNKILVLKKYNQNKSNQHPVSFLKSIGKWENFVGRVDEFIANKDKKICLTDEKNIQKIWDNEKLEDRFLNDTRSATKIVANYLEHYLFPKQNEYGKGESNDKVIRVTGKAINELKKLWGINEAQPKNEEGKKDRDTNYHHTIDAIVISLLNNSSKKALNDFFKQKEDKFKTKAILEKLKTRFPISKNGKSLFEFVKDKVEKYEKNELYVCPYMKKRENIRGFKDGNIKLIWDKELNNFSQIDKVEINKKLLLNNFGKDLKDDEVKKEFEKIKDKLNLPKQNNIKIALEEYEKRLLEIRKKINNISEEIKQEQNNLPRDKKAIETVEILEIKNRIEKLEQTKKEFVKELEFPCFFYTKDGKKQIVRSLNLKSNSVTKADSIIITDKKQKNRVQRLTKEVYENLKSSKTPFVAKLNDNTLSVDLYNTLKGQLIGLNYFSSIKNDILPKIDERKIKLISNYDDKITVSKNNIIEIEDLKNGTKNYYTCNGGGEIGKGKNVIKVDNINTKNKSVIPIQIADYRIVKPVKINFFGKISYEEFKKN

“GGAAGAGCAGAGCCUUGGUCUCGUUUGAGAACCAUGUAAGAAAUUACAUGGUGAGUGCAAAUAAGGAUUAUCCGAAAUUGUAUGCCCGCAUUGUGCGGCAAUAAAAAGGCUCGAAAGAGUCUUUUU / GGAAGAGCAGAGCCTTGGTCTCNNNNNNNN / NNNNNNNNGAGACCAAGGCTCTGCTCTTCC [T2 sgRNA V2 OMNI-53 ; T2 protospacer 8N PAM library]” was tested, and the activity (1-depletion score) [1] was 0.97.

For “GGAAGAGCAGAGCCUUGGUCUCGUUUGAGAGUUAUGUAAGAAAUUACAUGACGAGUUCAAAUAAAAAUUUAUUCAAACCGCCUAUUUAUAGGCCGCAGAUGUUCUGCAUUAUGCUUGCUAUUGCAAGCUUUUUU / GGAAGAGCAGAGCCTTGGTCTCNNNNNNNN / NNNNNNNNGAGACCAAGGCTCTGCTCTTCC [T2 sgRNA V2 OMNI-50 ; T2 protospacer 8N PAM library]”, the activity (1-depletion score) [2] was 0.98.

For “GGAAGAGCAGAGCCUUGGUCUCGUUUUAGUACCUAGAGAAAGAAAUUUCUUUAGACCUACUAAAAUAAGGCUUUAUGCCGAGAUUAAAGGAUGCCGACGGGCAUCCUUUUUU / GGAAGAGCAGAGCCTTGGTCTCNNNNNNNN / NNNNNNNNGAGACCAAGGCTCTGCTCTTCC [T2 sgRNA V2 OMNI-39 ; T2 protospacer 8N PAM library]”, the activity (1-depletion score) [3] was 0.95.

With “GGAAGAGCAGAGCCUUGGUCUCGUUUUGUUACCAUAUGAUUGAAAAUUUAUAUGACCUAACAAAACAAGGGUUUAUCCCGGACUCGGCUCUUCGGAGCCUUUUU / GGAAGAGCAGAGCCTTGGTCTCNNNNNNNN / NNNNNNNNGAGACCAAGGCTCTGCTCTTCC [T2 sgRNA V2 OMNI-40 ; T2 protospacer 8N PAM library]” the activity (1-depletion score) [4] was 0.97.
